The text below walks through data of patent US11292821B2, “Peptides and combination of peptides for use in immunotherapy against lung cancer, including NSCLC, SCLC and other cancers” (Immatics Biotechnologies GmbH, priority 2017, dated 2022).

One assay deals with HLA-A*02 (Homo sapiens, UniProt P04439, D140Y/D185E/D98H/E176V/E277Q/G131W/G231S/I119V/I121R/I166T/I218V/N151K/N90K/P208A/P217A/Q86G/Q94H/R138H/R169H). Description: MHC binding assay (UV-ligand exchange, β2m ELISA). An excerpt: Candidate peptides for T cell based therapies according to the present invention were further tested for their MHC binding capacity (affinity). The individual peptide-MHC complexes were produced by UV-ligand exchange, where a UV-sensitive peptide is cleaved upon UV-irradiation, and exchanged with the peptide of interest as analyzed. Only peptide candidates that can effectively bind and stabilize the peptide-receptive MHC molecules prevent dissociation of the MHC complexes. To determine the yield of the exchange reaction, an ELISA was performed based on the detection of the light chain (β2m) of stabilized MHC complexes. The assay was performed as generally described in Rodenko et al. (Rodenko et al., 2006).
96 well MAXISorp plates (NUNC) were coated over night with 2 ug/ml streptavidin in PBS at room temperature, washed 4× and blocked for 1 h at 37° C. in 2% BSA containing blocking buffer. […] Peptide-MHC monomers of the UV-exchange reaction were diluted 100-fold in blocking buffer. Samples were incubated for 1 h at 37° C., washed four times, incubated with 2 ug/ml HRP conjugated anti-β2m for 1h at 37° C., washed again and detected with TMB solution that is stopped with […]. Absorption was measured at 450 nm. Candidate peptides that show a high exchange yield (preferably higher than 50%, most preferred higher than 75%) are generally preferred for a generation and production of antibodies or fragments thereof, and/or T cell receptors or fragments thereof, as they show sufficient avidity to the MHC molecules and prevent dissociation of the MHC complexes.
A general note: ELISA stands for enzyme-linked immunosorbent assay.

In the next assay the test system is CD8+ T cells. Nature of the assay: In vitro T-cell priming assay with aAPCs (in vitro immunogenicity for MHC class I presented peptides). The assay is classed as cell-based, human. The following applies: in vitro immunogenicity, HLA A*02.

With “105 (SLLTHIPTA; listed as Homo sapiens) [compound 105]”, the “Peptide exchange (peptide exchange yield, MHC class I binding score)” value (shortened to “Peptide exchange”) with HLA-A*02 is given as ““++++” (>75% = ++++)”.

With “117 (FLDPNARPLV; listed as Homo sapiens) [compound 117]”, the “Peptide exchange” value in the assay with HLA-A*02 is recorded as ““++++” (>75% = ++++)”.

Regarding “116 (VLMEENSKL; listed as Homo sapiens) [compound 116]”, in the assay with HLA-A*02, the “Peptide exchange” value is reported as ““++++” (>75% = ++++)”.

On to “126 (FLSTVTSV; listed as Homo sapiens) [compound 126]”, for which, in the assay with HLA-A*02, the “Peptide exchange” value is reported as ““++++” (>75% = ++++)”.

As for “85 (YIDEFQSLV; listed as Homo sapiens) [compound 85]”, the “Peptide exchange” value in the assay with HLA-A*02 was ““++++” (>75% = ++++)”. Moreover, the “Wells positive [%]” value in the assay on CD8+ T cells is listed as ““++” (20%-49% = ++)”.

Consider “389 (TLMEQPLTTL; listed as Homo sapiens) [compound 389]”, for which the “Peptide exchange” value in the assay with HLA-A*02 is recorded as ““++++” (>75% = ++++)”.

As for “125 (VLQPFLPSI; listed as Homo sapiens) [compound 125]”, in the assay with HLA-A*02, the “Peptide exchange” value is ““++++” (>75% = ++++)”. Moreover, the “Wells positive [%]” value with CD8+ T cells is ““++++” (>=70% = ++++)”.

In the case of “113 (AVLTGLVEV; listed as Homo sapiens) [compound 113]”, the “Peptide exchange” value with HLA-A*02 is on record as ““++++” (>75% = ++++)”.

As to “89 (ILSTTMVTV; listed as Homo sapiens) [compound 89]”, the “Peptide exchange” value with HLA-A*02 is listed as ““++++” (>75% = ++++)”. The “Wells positive [%]” value with CD8+ T cells is ““+++” (50%-69% = +++)”.

In the case of “109 (LLLGSIGLLGV; listed as Homo sapiens) [compound 109]”, the “Peptide exchange” value with HLA-A*02 was ““++++” (>75% = ++++)”.

For the substance “128 (FLGTTPTL; listed as Homo sapiens) [compound 128]”, in the assay with HLA-A*02, the “Peptide exchange” value is recorded as ““++++” (>75% = ++++)”. Moreover, the “Wells positive [%]” value in the assay with CD8+ T cells is reported as ““+” (<20% = +)”.

On to “390 (HIMPTVHTV; listed as Homo sapiens) [compound 390]”, for which the “Peptide exchange” value with HLA-A*02 is listed as ““++++” (>75% = ++++)”.

Take “111 (ALCLLLHLL; listed as Homo sapiens) [compound 111]”: the “Peptide exchange” value with HLA-A*02 was ““+” (>10% = +)”.

Take “133 (MTLPVDAVISV; listed as Homo sapiens) [compound 133]”: the “Peptide exchange” value with HLA-A*02 is ““++++” (>75% = ++++)”. For the same substance, in the assay on CD8+ T cells, the “Wells positive [%]” value is ““+” (<20% = +)”.

As for “392 (SLFKDQMEL; listed as Homo sapiens) [compound 392]”, the “Peptide exchange” value with HLA-A*02 is given as ““++++” (>75% = ++++)”. Further, in the assay on CD8+ T cells, the “Wells positive [%]” value is reported as ““+” (<20% = +)”.

On to “102 (SLLEQAIAL; listed as Homo sapiens) [compound 102]”, for which the “Peptide exchange” value with HLA-A*02 is on record as ““++++” (>75% = ++++)”.

With “104 (GMLDIFWGV; listed as Homo sapiens) [compound 104]”, in the assay with HLA-A*02, the “Peptide exchange” value is ““++++” (>75% = ++++)”.

Consider “124 (SVASVLLYL; listed as Homo sapiens) [compound 124]”, for which, in the assay with HLA-A*02, the “Peptide exchange” value is ““++++” (>75% = ++++)”.

Turning to “115 (MLLETQDALYV; listed as Homo sapiens) [compound 115]”, in the assay with HLA-A*02, the “Peptide exchange” value is on record as ““++++” (>75% = ++++)”.

For “129 (VLYDKDAVYV; listed as Homo sapiens) [compound 129]”, the “Peptide exchange” value with HLA-A*02 is reported as ““++++” (>75% = ++++)”. In addition, the “Wells positive [%]” value in the assay on CD8+ T cells is ““++” (20%-49% = ++)”.

In the case of “127 (GLDGSLVFL; listed as Homo sapiens) [compound 127]”, the “Peptide exchange” value in the assay with HLA-A*02 is ““++++” (>75% = ++++)”. The “Wells positive [%]” value in the assay on CD8+ T cells is reported as ““++” (20%-49% = ++)”.

As to “110 (LLADFQALL; listed as Homo sapiens) [compound 110]”, the “Peptide exchange” value with HLA-A*02 is listed as ““++++” (>75% = ++++)”.

Consider “98 (LQSSGLTLLL; listed as Homo sapiens) [compound 98]”, for which the “Peptide exchange” value with HLA-A*02 is ““++++” (>75% = ++++)”.

Regarding “99 (FLKEKVPGI; listed as Homo sapiens) [compound 99]”, in the assay with HLA-A*02, the “Peptide exchange” value was ““++++” (>75% = ++++)”.

For “120 (ALLANLPAV; listed as Homo sapiens) [compound 120]”, the “Peptide exchange” value with HLA-A*02 is given as ““++++” (>75% = ++++)”.

On to “123 (LMAFFLAVV; listed as Homo sapiens) [compound 123]”, for which, in the assay with HLA-A*02, the “Peptide exchange” value was ““++” (>20% = ++)”.

For the substance “122 (ALLEMFPEITV; listed as Homo sapiens) [compound 122]”, the “Peptide exchange” value with HLA-A*02 is listed as ““++++” (>75% = ++++)”.

“93 (TLQEKILQV; listed as Homo sapiens) [compound 93]”: the “Peptide exchange” value in the assay with HLA-A*02 was ““++++” (>75% = ++++)”. Further, in the assay on CD8+ T cells, the “Wells positive [%]” value was ““+” (<20% = +)”.

Regarding “112 (SVSDGIHSV; listed as Homo sapiens) [compound 112]”, the “Peptide exchange” value in the assay with HLA-A*02 was ““++++” (>75% = ++++)”.

“103 (FLYYPDPVL; listed as Homo sapiens) [compound 103]”: in the assay with HLA-A*02, the “Peptide exchange” value is given as ““++++” (>75% = ++++)”.

Regarding “106 (FIIDTTYPAYV; listed as Homo sapiens) [compound 106]”, the “Peptide exchange” value with HLA-A*02 is given as ““++++” (>75% = ++++)”.

Consider “119 (RTADITVTV; listed as Homo sapiens) [compound 119]”, for which, in the assay with HLA-A*02, the “Peptide exchange” value was ““++++” (>75% = ++++)”.

For “92 (NLRDLLSEV; listed as Homo sapiens) [compound 92]”, the “Peptide exchange” value with HLA-A*02 was ““+++” (>50 = +++)”.

“393 (ILLPYLQTL; listed as Homo sapiens) [compound 393]”: the “Peptide exchange” value with HLA-A*02 is ““++++” (>75% = ++++)”. In the assay with CD8+ T cells, the “Wells positive [%]” value is given as ““+” (<20% = +)”.

Turning to “100 (RQYPTPFQL; listed as Homo sapiens) [compound 100]”, in the assay with HLA-A*02, the “Peptide exchange” value is ““++++” (>75% = ++++)”.

With “121 (ALVDTLTGI; listed as Homo sapiens) [compound 121]”, the “Peptide exchange” value with HLA-A*02 is given as ““++++” (>75% = ++++)”.

As to “391 (SLIDMRGIETV; listed as Homo sapiens) [compound 391]”, the “Peptide exchange” value in the assay with HLA-A*02 is recorded as ““++++” (>75% = ++++)”.

In the case of “107 (LLQGAIESV; listed as Homo sapiens) [compound 107]”, in the assay with HLA-A*02, the “Peptide exchange” value is on record as ““++++” (>75% = ++++)”.

In the case of “101 (FIISDWRFVL; listed as Homo sapiens) [compound 101]”, the “Peptide exchange” value in the assay with HLA-A*02 is ““+++” (>50 = +++)”. The “Wells positive [%]” value in the assay on CD8+ T cells is reported as ““+” (<20% = +)”.

For “91 (FALPGLLHA; listed as Homo sapiens) [compound 91]”, the “Peptide exchange” value with HLA-A*02 is on record as ““+++” (>50 = +++)”.

For the substance “87 (TLYPYQISQL; listed as Homo sapiens) [compound 87]”, the “Peptide exchange” value with HLA-A*02 is reported as ““++++” (>75% = ++++)”. The “Wells positive [%]” value with CD8+ T cells was ““++” (20%-49% = ++)”.

For “86 (FVIDGFDEL; listed as Homo sapiens) [compound 86]”, the “Peptide exchange” value with HLA-A*02 is ““++++” (>75% = ++++)”.

On to “130 (NLWGGQGLLGV; listed as Homo sapiens) [compound 130]”, for which the “Peptide exchange” value in the assay with HLA-A*02 is recorded as ““++++” (>75% = ++++)”. For the same substance, in the assay on CD8+ T cells, the “Wells positive [%]” value is given as ““+” (<20% = +)”.

Take “88 (VQMVITEAQKV; listed as Homo sapiens) [compound 88]”: the “Peptide exchange” value in the assay with HLA-A*02 is on record as ““++++” (>75% = ++++)”. Further, the “Wells positive [%]” value in the assay with CD8+ T cells is ““++” (20%-49% = ++)”.

Regarding “95 (ITIGVLARV; listed as Homo sapiens) [compound 95]”, the “Peptide exchange” value with HLA-A*02 is on record as ““++++” (>75% = ++++)”. The “Wells positive [%]” value in the assay on CD8+ T cells is ““++++” (>=70% = ++++)”.

For the substance “84 (YVDINTFRL; listed as Homo sapiens) [compound 84]”, the “Peptide exchange” value with HLA-A*02 was ““++++” (>75% = ++++)”. The “Wells positive [%]” value in the assay with CD8+ T cells is listed as ““+” (<20% = +)”.

In the case of “388 (FSIPEGALVAV; listed as Homo sapiens) [compound 388]”, the “Peptide exchange” value with HLA-A*02 is on record as ““++++” (>75% = ++++)”.

Consider “97 (VLALVNSTV; listed as Homo sapiens) [compound 97]”, for which the “Peptide exchange” value with HLA-A*02 is recorded as ““++++” (>75% = ++++)”. Moreover, the “Wells positive [%]” value in the assay on CD8+ T cells is ““+++” (50%-69% = +++)”.

With “118 (ALSSVLHSI; listed as Homo sapiens) [compound 118]”, the “Peptide exchange” value with HLA-A*02 was ““++++” (>75% = ++++)”.

Consider “114 (ILDERQVLL; listed as Homo sapiens) [compound 114]”, for which the “Peptide exchange” value with HLA-A*02 was ““++++” (>75% = ++++)”.
